Source: US20120266260A1

Key:
[1] = target: synthetic IgA1 hinge-region glycopeptide linked to BSA with 3 GalNAc residues (HR-GalNAc-BSA) (bovine) (UniProt P02769); assay: ELISA, wells with HR-GalNAc-BSA treated with unlabeled HAA (20 ug/ml); competitor: IgG from cell lines of IgAN patients
[2] = target: Gal-deficient IgA1 (Mce) myeloma protein (human) (UniProt P01876); assay: Western blot, membrane pre-incubated with unlabeled HAA (20 ug/ml); competitor: IgG purified from the serum of an IgAN patient; densitometry

percent inhibition of IgG binding [1]: 78%
percent reduction of IgG binding [2]: 66%
Substance: Helix aspersa agglutinin (HAA)
